Drawing on patent publication US20220193133A1, this text covers Response, koff and kon for 1 molecule.

The target of this experiment is D04-his tagged VHH (humanized D04). The experiment can be described thus: Octet (BLI), anti-idiotype VHH-Fc vs his-tagged VHH; table title prints B11-his, paragraph 353 ties these values to D04. On the technique in general: In BLI a coated tip is dipped into the sample, and binding shifts an interference pattern.

A word on the koff: it is the rate constant with which the complex falls apart. In general, kon refers to the rate constant with which the complex forms. Higher therefore signals faster complex formation.

B1: AMD71 (huB11_CNTY3+4_A02 anti-idiotype VHH IgG1-Fc fusion) (Fc fusion, not shown: a dimerising Fc or GST)
chain: EVQLLESGGGLVQPGGSLRLSCAASGRTYTGSAMGWYRQAPGKERELVSAISTGGETYYADSVKGRFTISRDNSKNTLYLQMNSLRAEDTAVYYCAAGYVGLPYTYRPATSRRGYTYWGQGTQVTVSS
Take B1: the Response was determined as 0.0062, the koff is < 1e-07 s⁻¹ and the kon was 2160 M⁻¹ s⁻¹.
